Blank lines part the entries; values can stand above or below the binder they belong to.
What was measured:
[1] = target: T1, 人PSMA ECD-AFH (可溶性人PSMA ECD，重组二聚体PSMA ECD) (human, UniProt Q04609 44-750); assay: SPR Biacore, dimeric PSMA ECD
T1 construct: Expressed in HEK-293, IMAC then SEC; the dimer fraction was used; also called TSC033; HuPSMA-AFH

全长食蟹猴PSMA = target: T2, 全长食蟹猴PSMA (cynomolgus monkey, UniProt Q04609 1-750 (human entry)); assay: MSD live-cell ELISA on CHOK1SV/cynoPSMA cells
T2 construct: On transfected CHO cells; also called TSC308; cynoPSMA
T2 chain: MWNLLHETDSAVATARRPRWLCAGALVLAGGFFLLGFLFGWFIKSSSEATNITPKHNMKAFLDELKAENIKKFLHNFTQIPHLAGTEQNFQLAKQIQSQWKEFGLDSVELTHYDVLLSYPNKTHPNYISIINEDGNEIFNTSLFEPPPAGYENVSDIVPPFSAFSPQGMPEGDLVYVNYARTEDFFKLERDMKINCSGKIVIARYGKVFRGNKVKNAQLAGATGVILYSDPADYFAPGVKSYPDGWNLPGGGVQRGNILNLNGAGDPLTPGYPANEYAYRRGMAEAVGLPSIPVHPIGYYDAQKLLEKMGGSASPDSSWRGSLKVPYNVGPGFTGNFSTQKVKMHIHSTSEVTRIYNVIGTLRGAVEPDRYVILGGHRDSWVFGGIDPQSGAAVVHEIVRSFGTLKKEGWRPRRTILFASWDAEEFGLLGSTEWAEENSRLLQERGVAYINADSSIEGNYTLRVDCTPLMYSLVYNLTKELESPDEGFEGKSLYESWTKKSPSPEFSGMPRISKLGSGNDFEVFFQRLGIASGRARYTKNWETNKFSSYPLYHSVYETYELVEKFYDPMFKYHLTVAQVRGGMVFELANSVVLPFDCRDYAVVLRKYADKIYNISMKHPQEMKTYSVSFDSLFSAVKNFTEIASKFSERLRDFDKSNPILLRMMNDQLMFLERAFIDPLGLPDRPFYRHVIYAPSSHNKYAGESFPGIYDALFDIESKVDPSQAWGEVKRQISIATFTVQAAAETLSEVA

[2] = target: T3, 人CD3ε (TCR/CD3复合物，Jurkat细胞) (human, UniProt P07766 23-207); assay: flow cytometry on Jurkat cells, domain within anti-TA x anti-CD3ε constructs
T3 construct: whole, on cells; The other chains of the TCR/CD3 complex are present on the cells; also called CD3(+) Jurkat

[3] = target: T1, 人PSMA ECD-AFH (可溶性人PSMA ECD，重组二聚体PSMA …); assay: SPR Biacore T200, scFv-Fc captured by anti-human IgG, dimeric PSMA ECD as analyte

T1 sequence (Q04609 other isoform, or with tags, fused parts or gaps): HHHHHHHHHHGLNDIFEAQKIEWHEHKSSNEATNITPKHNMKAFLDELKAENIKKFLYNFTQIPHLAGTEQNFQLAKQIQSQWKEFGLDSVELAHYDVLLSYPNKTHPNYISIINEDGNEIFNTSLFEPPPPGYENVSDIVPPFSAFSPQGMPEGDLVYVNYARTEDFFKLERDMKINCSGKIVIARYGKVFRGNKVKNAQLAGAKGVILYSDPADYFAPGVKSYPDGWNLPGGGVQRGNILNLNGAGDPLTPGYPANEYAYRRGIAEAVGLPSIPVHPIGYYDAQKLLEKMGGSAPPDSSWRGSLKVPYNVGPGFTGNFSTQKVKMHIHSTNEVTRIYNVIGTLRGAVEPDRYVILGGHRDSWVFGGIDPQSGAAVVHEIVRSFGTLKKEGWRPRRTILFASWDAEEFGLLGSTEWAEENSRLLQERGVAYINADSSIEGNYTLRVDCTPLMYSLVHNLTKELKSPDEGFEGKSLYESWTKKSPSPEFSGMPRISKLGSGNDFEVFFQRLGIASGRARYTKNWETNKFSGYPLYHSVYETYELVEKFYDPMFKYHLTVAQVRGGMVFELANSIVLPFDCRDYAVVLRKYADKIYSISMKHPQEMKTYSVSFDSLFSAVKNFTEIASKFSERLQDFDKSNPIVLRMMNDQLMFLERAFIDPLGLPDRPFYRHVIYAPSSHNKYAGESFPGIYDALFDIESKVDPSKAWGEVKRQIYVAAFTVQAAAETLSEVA
T3 sequence (P07766 23-207): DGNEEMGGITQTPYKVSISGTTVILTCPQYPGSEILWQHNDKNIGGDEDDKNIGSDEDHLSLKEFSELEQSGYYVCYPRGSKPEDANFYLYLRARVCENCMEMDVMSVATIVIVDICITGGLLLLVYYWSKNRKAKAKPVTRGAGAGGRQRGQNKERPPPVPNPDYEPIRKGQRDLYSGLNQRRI

Kd [1]: 40 nM
binding result (全长食蟹猴PSMA): binds
B1: PSMA01023 (Fc fusion)
chain: DIQMTQSPSTLSASVGDRVTITCRASKSISKYLAWYQQKPGKAPKLLIHSGSSLESGVPSRFSGSGSGTEFTLTISSLQPDDFATYYCQQHIEYPWTFGQGTKVEIKGGGGSGGGGSGGGGSGGGGSQVQLVQSGAEVKKPGASVKVSCKASGYTFTDYYMHWVRQAPGQGLEWMGYFNPYNDYTRYAQKFQGRVTMTRDTSTSTVYMELSSLRSEDTAVYYCARSDGYYDAMDYWGQGTTVTVSSSEPKSSDKTHTCPPCPAPEAAGAPSVFLFPPKPKDTLMISRTPEVTCVVVDVSHEDPEVKFNWYVDGVEVHNAKTKPREEQYNSTYRVVSVLTVLHQDWLNGKEYKCAVSNKALPAPIEKTISKAKGQPREPQVYTLPPSRDELTKNQVSLTCLVKGFYPSDIAVEWESNGQPENNYKTTPPVLDSDGSFFLYSKLTVDKSRWQQGNVFSCSVMHEALHNHYTQKSLSLSPGK
notes: Monospecific bivalent anti-PSMA scFv-Fc, scFv in VL-VH orientation

binding result [2]: binds
B2: CRIS7H16 (scFv, V domains shown)
VH: QVQLVQSGAEVKKPGASVKVSCKASGYTFTRSTMHWVRQAPGQGLEWIGYINPSSAYTNYAQKFQGRVTLTADKSTSTAYMELSSLRSEDTAVYYCASPQVHYDYNGFPYWGQGTLVTVSS
VL: DIQMTQSPSSLSASVGDRVTITCRASSSVSYMNWYQQKPGKAPKRWIYDSSKLASGVPSRFSGSGSGTDFTLTISSLQPEDFATYYCQQWSRNPPTFGQGTKVEIK
notes: also called H16 CD3结合结构域

binding result [3]: binds
B3: PSMA01012 (Fc fusion)
VH: QVQLVQSGAEVKKPGASVKVSCKASGYTFTDYYMHWVRQAPGQGLEWMGYFNPYNDYTRYAQKFQGRVTMTRDTSISTAYMELSSLRSDDTAVYYCARSDGYYDAMDYWGQGTTVTVSS
VL: DIQMTQSPSAMSASVGDRVTITCRASKSISKYLAWFQQKPGKVPKLRIHSGSTLQSGVPSRFSGSGSGTEFTLTISSLQPEDFATYYCQQHIEYPWTFGQGTKVEIKR
notes: Monospecific bivalent scFv-Fc, scFv in VL-VH orientation; also called TSC189 (结合结构域); 亲本构建体PSMA01012
